Values of other authors in article PMC4703387, “Identification of the Calmodulin-Binding Domains of Fas Death Receptor” (PLoS ONE, 2016).

Biological target: T1, Ca^2+/CaM (Homo sapiens, UniProt P0DP23)
T1 construct: made in house
Conditions: ref [32]
Source text: We have also shown that both lobes of Ca^2+/CaM are important for FasDD binding. […] Our attempt to identify the interaction regions by ... || To identify the Ca^2+/CaM-binding regions in large proteins is not a simple task. To predict the Ca^2+/CaM-binding site, a web-based tool is often used to provide favorable scores based on multiple criteria including hydropathy, α-helical propensity, hydrophobic residue content, residue charge, residue weight, helical class and occurrence of particular residues.[39] However, this method can still provide biased results.

B1: FasDD: intracellular death domain of Fas (protein)
chain: SKYITTIAGVMTLSQVKGFVRKNGVNEAKIDEIKNDNVQDTAEQKVQLLRNWHQLHGKKEAYDTLIKDLKKANLCTLAEKIQTII
- stoichiometry of Ca^2+/CaM–FasDD complex: two Ca^2+/CaM molecules binding simultaneously to FasDD
